One experiment deals with T1, yGid10 (Δ1-64, Δ285-292) (S. cerevisiae, UniProt P53242 65-284).
T1 sequence: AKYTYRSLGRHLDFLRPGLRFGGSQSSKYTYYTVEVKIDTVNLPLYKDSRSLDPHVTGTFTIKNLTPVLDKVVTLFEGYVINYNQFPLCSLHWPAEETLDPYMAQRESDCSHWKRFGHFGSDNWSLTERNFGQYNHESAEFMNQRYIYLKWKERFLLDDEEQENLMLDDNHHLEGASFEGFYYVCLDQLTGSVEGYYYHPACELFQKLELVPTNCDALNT
The experiment is described as follows: crystal structure.

In another experiment the target is T2, hGid4 (Δ1-115) (human, UniProt Q8IVV7 116-300).
T2 sequence: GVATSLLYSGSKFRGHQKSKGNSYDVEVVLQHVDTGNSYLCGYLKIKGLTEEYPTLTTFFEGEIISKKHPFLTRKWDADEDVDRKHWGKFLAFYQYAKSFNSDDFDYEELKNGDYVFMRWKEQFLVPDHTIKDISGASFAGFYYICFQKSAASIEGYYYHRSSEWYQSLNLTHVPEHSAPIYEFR
The experiment is described as follows: fluorescence polarisation. (Fluorescence polarisation rises when a labelled molecule tumbles more slowly, as on binding a larger partner.)

Consider FWLPANLW [FWLPANLW peptide], for which the binding result with yGid10 (Δ1-64, Δ285-292) is listed as “binds”.
For the molecule GVATSLLW [GVATSLLW peptide (hGid4 residues 116-122)], the binding result with hGid4 (Δ1-115) is given as “binds”.

The values above are taken from doi:10.1101/2021.09.03.458554 (bioRxiv, 2021).
